For the test, the target named is chicken lysozyme (chicken) (UniProt P00698). In words: far-Western, overlay or dot blot; proteins resolved by SDS-PAGE and transferred to PVDF; biotinylated CaM 1:2400, 30 min at room temperature in TBS-T with 1 mM CaCl2; VectaStain, chemi-luminescence.

“biotinylated calmodulin (CaM) (from UniProt P0DP23 1-149) (natural protein; other documents disagree on this pair)” showed a fold lower CaM binding signal than for CaMKII of 500 fold.
